Data on three substances can be found in IntAct's records for PubMed 17451412.

One assay deals with wasl_rat Wasl (UniProt O08816).
The target in a further assay is tir_eco57 tir (UniProt Q7DB77).
Sequence of tir_eco57 tir (Q7DB77 whole entry): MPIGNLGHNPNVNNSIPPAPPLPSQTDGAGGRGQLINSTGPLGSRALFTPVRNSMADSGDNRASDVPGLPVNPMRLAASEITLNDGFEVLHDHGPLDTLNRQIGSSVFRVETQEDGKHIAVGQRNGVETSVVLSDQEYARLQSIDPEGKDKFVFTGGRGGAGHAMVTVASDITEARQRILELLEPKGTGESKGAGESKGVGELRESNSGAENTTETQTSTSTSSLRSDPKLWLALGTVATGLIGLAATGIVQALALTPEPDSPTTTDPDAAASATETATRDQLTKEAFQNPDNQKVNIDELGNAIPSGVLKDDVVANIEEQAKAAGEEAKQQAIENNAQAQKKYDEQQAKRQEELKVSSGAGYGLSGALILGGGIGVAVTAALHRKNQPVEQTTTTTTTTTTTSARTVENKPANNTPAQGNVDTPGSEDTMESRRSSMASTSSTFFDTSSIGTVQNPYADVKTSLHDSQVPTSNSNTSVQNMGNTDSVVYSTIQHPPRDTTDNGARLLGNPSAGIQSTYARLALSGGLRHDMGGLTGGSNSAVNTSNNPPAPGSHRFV

Sequence of wasl_rat Wasl (O08816 whole entry): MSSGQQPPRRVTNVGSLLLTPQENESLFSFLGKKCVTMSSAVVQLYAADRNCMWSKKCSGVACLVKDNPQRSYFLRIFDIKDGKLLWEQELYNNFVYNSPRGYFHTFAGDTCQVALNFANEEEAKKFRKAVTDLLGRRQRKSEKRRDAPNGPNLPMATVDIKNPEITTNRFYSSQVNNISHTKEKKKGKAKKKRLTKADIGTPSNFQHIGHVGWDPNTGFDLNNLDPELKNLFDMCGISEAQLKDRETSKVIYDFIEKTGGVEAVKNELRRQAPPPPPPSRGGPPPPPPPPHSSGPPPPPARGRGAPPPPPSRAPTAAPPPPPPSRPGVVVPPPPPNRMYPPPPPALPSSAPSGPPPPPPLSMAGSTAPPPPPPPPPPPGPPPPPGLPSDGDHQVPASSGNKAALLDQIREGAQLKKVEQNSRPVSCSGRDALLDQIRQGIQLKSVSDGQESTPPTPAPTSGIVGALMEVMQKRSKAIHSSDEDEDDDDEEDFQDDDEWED
Sequence of Src substrate cortactin (Mus musculus), Q60598 S405D;S418D (Q60598 whole entry S405D/S418D): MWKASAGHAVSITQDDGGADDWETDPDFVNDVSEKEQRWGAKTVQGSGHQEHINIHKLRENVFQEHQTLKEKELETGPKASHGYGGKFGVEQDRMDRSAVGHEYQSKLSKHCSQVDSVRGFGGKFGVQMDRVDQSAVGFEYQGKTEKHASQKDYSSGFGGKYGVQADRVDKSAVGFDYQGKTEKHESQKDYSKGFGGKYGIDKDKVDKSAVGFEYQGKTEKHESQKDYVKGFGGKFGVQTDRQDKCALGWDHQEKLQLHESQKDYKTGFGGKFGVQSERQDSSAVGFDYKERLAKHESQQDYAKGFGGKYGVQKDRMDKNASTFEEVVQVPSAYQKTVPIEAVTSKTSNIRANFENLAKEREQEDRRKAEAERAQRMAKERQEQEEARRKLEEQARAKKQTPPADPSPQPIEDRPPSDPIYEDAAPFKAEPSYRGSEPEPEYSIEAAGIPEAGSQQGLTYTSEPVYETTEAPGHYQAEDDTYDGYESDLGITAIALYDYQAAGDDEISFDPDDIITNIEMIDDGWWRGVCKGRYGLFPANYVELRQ
Sequence of Src substrate cortactin (Mus musculus), Q60598 Y421D;Y466D (Q60598 whole entry Y421D/Y466D): as the sequence (Q60598 whole entry S405D/S418D) above, with D405S, D418S, Y421D, Y466D counted along it
Sequence of Src substrate cortactin (Mus musculus), Q60598 W525K (Q60598 whole entry W525K): as the sequence (Q60598 whole entry S405D/S418D) above, with D405S, D418S, W525K counted along it

“Src substrate cortactin (Mus musculus), Q60598 S405D;S418D”: the “effect of a mutation on the interaction” value was “disrupting interaction” with wasl_rat Wasl and “with no effect” with tir_eco57 tir. In the case of “Src substrate cortactin (Mus musculus), Q60598 W525K”, the “effect of a mutation on the interaction” value with wasl_rat Wasl was “with no effect”. On to “Src substrate cortactin (Mus musculus), Q60598 Y421D;Y466D”, for which the “effect of a mutation on the interaction” value with wasl_rat Wasl and in the assay with tir_eco57 tir was “increasing interaction” each time.
